Assay results taken from patent US20200164038A1, “MODIFIED NUCLEOSIDE, NUCLEOTIDE, AND NUCLEIC ACID COMPOSITIONS” (ModernaTX, Inc., priority 2011, published 2020).
Like-named read-outs stand apart in the source and are kept apart here.

Columns and labels:
[1] = LNP in vivo study IV, IM, SC, serum G-CSF or EPO by ELISA; conditions: rats, 0.05 mg/kg
Description: (§1) Formulations, listed in Table 31, were characterized by particle size, zeta potential, and encapsulation.
LNP formulations, shown in Table 31 (above), were administered to rats (n=5) intravenously (IV), intramuscularly (IM) or subcutaneously (SC) at a single modified mRNA dose of 0.05 mg/kg. A control group of rats (n=4) was untreated. The rats were bled at 2 hours, 8 hours, 24 hours, 48 hours and 96 hours and after they were administered with G-CSF or EPO modified mRNA formulations to determine protein expression using ELISA. The rats administered EPO modified mRNA intravenously were also bled at 7 days.

[2] = Time course in vivo study of LNP, serum G-CSF or EPO by ELISA; conditions: mice IV
Description: as §1
LNP formulations, shown in Table 31 (above), were administered to mice (n=5) intravenously (IV) at a single modified mRNA dose of 0.5, 0.05 or 0.005 mg/kg. The mice were bled at 8 hours, 24 hours, 72 hours and 6 days after they were administered with G-CSF or EPO modified mRNA formulations to determine protein expression using ELISA.

[3] = LNP formulations in mice, serum G-CSF or EPO by ELISA; type: in vivo; conditions: mice IV; for time out to which protein expression was detectable: LNP
Description: as §1
LNP formulations, shown in Table 31 (above), were administered to mice (n=4) intravenously (IV) at a single modified mRNA dose 0.05 mg/kg or 0.005 mg/kg. There was also 3 control groups of mice (n=4) that were untreated. The mice were bled at 2 hours, 8 hours, 24 hours, 48 hours and 72 hours after they were administered with G-CSF or EPO modified mRNA formulations to determine the protein expression. Protein expression of G-CSF and EPO were determined using ELISA.

[4] = Non-human primate in vivo study for G-CSF and EPO, serum protein by ELISA; design: species or system cynomolgus monkey
Description: as §1
LNP formulations, shown in Table 31 (above), were administered to non-human primates (NHP) (cynomolgus monkey) (n=2) as intravenous injection (IV). The NHP were administered a single modified mRNA IV dose of 0.5 mg/kg, 0.05 mg/kg or 0.005 mg/kg of G-CSF or EPO in a dose volume of 0.5 mL/kg. The NHPs were bled before dosing with the modified mRNA LNP formulations to determine protein expression in the serum and a baseline complete blood count. After administration with the G-CSF modified mRNA formulation the NHP were bled at 8, 24, 48 and 72 hours to determined protein expression. After administration with the EPO modified mRNA formulation the NHP were bled at 8, 24, 48, 72 hours and 7 days to determined protein expression.
Samples collected from the NHPs after they were administered with G-CSF or EPO modified mRNA formulations were analyzed by ELISA to determine protein expression. Neutrophil and reticulocyte count was also determined pre-dose, 24 hours, 3 days, 7 days, 14 days and 18 days after administration of the modified G-CSF or EPO formulation.

[5] = Non-human primate serum chemistry: alanine transaminase (ALT), aspartate transaminase (AST); type: in vivo, cynomolgus monkey; conditions: for Aspartate Transaminase (AST): Female NHP; for Alanine Transaminase (ALT): Male NHP
[6] = Human G-CSF modified RNA lipoplex I.M., S.C., I.V., serum human G-CSF ELISA 6 hours; type: in vivo, C57/BL6 mice; conditions: lipoplexed 30% RNAIMAX
Description: 6 hours after administration of a formulation, serum was collected from each mouse to measure the amount of human G-CSF protein in the mouse serum by human G-CSF ELISA and the results are shown in Table 54.

[7] = test system: IFN-alpha; assay: Cytokine study PBMC, IFN-alpha production ELISA; type: cell-based; conditions: human PBMC, Lipofectamine 2000
Description: The plates were then incubated at 37 C.
Each condition was done in duplicate
Shown in Tables 69 and 70 are the average from 2 separate PBMC donors of the G-CSF and IFN-alpha production over time as measured by specific ELISA.

[8] = for Serum Concentration 8-12 hours after administration: G-CSF; for G-CSF Protein Expression, Conc: mice IV, serum 8 hrs
[9] = test system: HEK293 cells
Description: Human embryonic kidney epithelial (HEK293) cells were seeded on 96-well plates at a density of 30,000 cells per well in 100 ul cell culture medium. 250 ng of modified G-CSF mRNA (SEQ ID NO: 6; polyA tail of approximately 160 nucleotides not shown in sequence; 5′cap, Cap1) formulated with RNAiMAX™ (Invitrogen, Carlsbad, Calif.) was added to a well. The G-CSF was completely modified with 5mC and pseudoU (100% modification), not modified with 5mC and pseudoU (0% modification) or was partially modified with 5mC and pseudoU so the mRNA would contain 75% modification, 50% modification or 25% modification. Control samples (AH 5/2, mCherry (SEQ ID NO: 7; polyA tail of approximately 160 nucleotides not shown in sequence; 5′cap, Cap1; fully modified 5mC and pseudoU) and untreated) were also analyzed. […] The supernatants were harvested after 16 hours and the secreted G-CSF protein was analyzed by ELISA.

[10] = LNP NPA-030-2, 0.005 mg/kg, 8 hours
[11] = LNP NPA-030-2, 0.005 mg/kg, 24 hours
[12] = LNP NPA-030-2, 0.05 mg/kg, 8 hours
[13] = LNP NPA-030-2, 0.05 mg/kg, 24 hours

B1: G-CSF: human G-CSF mRNA, SEQ ID NO: 6, polyA about 160 nt, Cap1, fully modified with 5-methylcytosine and pseudouridine (nucleic acid, listed as Homo sapiens)
chain: GGGAAAUAAGAGAGAAAAGAAGAGUAAGAAGAAAUAUAAGAGCCACCAUGGCCGGUCCCGCGACCCAAAGCCCCAUGAAACUUAUGGCCCUGCAGUUGCUGCUUUGGCACUCGGCCCUCUGGACAGUCCAAGAAGCGACUCCUCUCGGACCUGCCUCAUCGUUGCCGCAGUCAUUCCUUUUGAAGUGUCUGGAGCAGGUGCGAAAGAUUCAGGGCGAUGGAGCCGCACUCCAAGAGAAGCUCUGCGCGACAUACAAACUUUGCCAUCCCGAGGAGCUCGUACUGCUCGGGCACAGCUUGGGGAUUCCCUGGGCUCCUCUCUCGUCCUGUCCGUCGCAGGCUUUGCAGUUGGCAGGGUGCCUUUCCCAGCUCCACUCCGGUUUGUUCUUGUAUCAGGGACUGCUGCAAGCCCUUGAGGGAAUCUCGCCAGAAUUGGGCCCGACGCUGGACACGUUGCAGCUCGACGUGGCGGAUUUCGCAACAACCAUCUGGCAGCAGAUGGAGGAACUGGGGAUGGCACCCGCGCUGCAGCCCACGCAGGGGGCAAUGCCGGCCUUUGCGUCCGCGUUUCAGCGCAGGGCGGGUGGAGUCCUCGUAGCGAGCCACCUUCAAUCAUUUUUGGAAGUCUCGUACCGGGUGCUGAGACAUCUUGCGCAGCCGUGAAGCGCUGCCUUCUGCGGGGCUUGCCUUCUGGCCAUGCCCUUCUUCUCUCCCUUGCACCUGUACCUCUUGGUCUUUGAAUAAAGCCUGAGUAGGAAG
modifications: Cap1; polyA; 5-methylcytosine, pseudouridine
[1]; intravenous
  time out to which protein expression was detectable: 7 days
[1]; subcutaneous and intramuscular
  time out to which protein expression was detectable: at least 8 hours
[2]; [10]
  G-CSF Serum Concentration: 1,550.6 pg/ml
[2]; [11]
  G-CSF Serum Concentration: 5,068.9 pg/ml
[2]; [12]
  G-CSF Serum Concentration: 462,312.5 pg/ml
[2]; [13]
  G-CSF Serum Concentration: 80,903.8 pg/ml
[2]; LNP NPA-030-2, 0.5 mg/kg, 8 hours
  G-CSF Serum Concentration: >1,250,000 pg/ml
[2]; LNP NPA-030-2, 0.5 mg/kg, 24 hours
  G-CSF Serum Concentration: 495,812.5 pg/ml
[2]; LNP NPA-030-2, 0.5 mg/kg, 72 hours
  G-CSF Serum Concentration: 1,325.6 pg/ml
[2]; LNP, 0.005 mg/kg and 0.05 mg/kg
  time out to which protein expression was detectable: 72 h
[3]; LNP NPA-030-2, 0.005 mg/kg, 2 hours
  G-CSF Serum Concentration: 3,447.8 pg/ml
[3]; [10]
  G-CSF Serum Concentration: 11,454.0 pg/ml
[3]; [11]
  G-CSF Serum Concentration: 4,960.2 pg/ml
[3]; LNP NPA-030-2, 0.005 mg/kg, 48 hours
  G-CSF Serum Concentration: 686.4 pg/mL
[3]; LNP NPA-030-2, 0.05 mg/kg, 2 hours
  G-CSF Serum Concentration: 20,951.4 pg/ml
[3]; [12]
  G-CSF Serum Concentration: 20,012.8 pg/ml
[3]; [13]
  G-CSF Serum Concentration: 19,356.2 pg/ml
[3]; LNP NPA-030-2, 0.05 mg/kg, 48 hours
  G-CSF Serum Concentration: 1,963.0 pg/ml
[3]; LNP NPA-030-2, 0.05 mg/kg, 72 hours
  G-CSF Serum Concentration: 47.3 pg/mL
[3]; 0.005 mg/kg
  time out to which protein expression was detectable: ≥ 48 h
[3]; 0.05 mg/kg
  time out to which protein expression was detectable: ≥ 72 h
[4]; 0.005 mg/kg IV LNP, 24 hours
  Male NHP Serum G-CSF Concentration: <39 pg/mL
[4]; 0.005 mg/kg IV LNP, 48 hours
  Male NHP Serum G-CSF Concentration: <39 pg/mL
[4]; 0.005 mg/kg IV LNP, 72 hours
  Male NHP Serum G-CSF Concentration: <39 pg/mL
[4]; 0.005 mg/kg IV LNP, Pre-bleed
  Male NHP Serum G-CSF Concentration: <39 pg/mL
[4]; 0.05 mg/kg IV LNP, 8 hours
  Female NHP Serum G-CSF Concentration: 3,289 pg/ml
  Male NHP Serum G-CSF Concentration: 1,722 pg/ml
[4]; 0.05 mg/kg IV LNP, 24 hours
  Female NHP Serum G-CSF Concentration: 722 pg/mL
  Male NHP Serum G-CSF Concentration: 307 pg/mL
[4]; 0.05 mg/kg IV LNP, 48 hours
  Male NHP Serum G-CSF Concentration: <39 pg/mL
[4]; 0.05 mg/kg IV LNP, 72 hours
  Male NHP Serum G-CSF Concentration: <39 pg/mL
[4]; 0.05 mg/kg IV LNP, Pre-bleed
  Male NHP Serum G-CSF Concentration: <39 pg/mL
[4]; 0.5 mg/kg IV LNP, Pre-bleed, limit of detection 39 pg/ml
  Male NHP Serum G-CSF Concentration: <39 pg/mL
[4]; NHP IV, G-CSF LNP
  time beyond which protein expression was not detected: ≤ 72 h
[5]; 0.005 mg/kg, 2 days
  Aspartate Transaminase (AST): 34 U/L
  Alanine Transaminase (ALT): 39 U/L
[5]; 0.005 mg/kg, 4 days
  Aspartate Transaminase (AST): 36 U/L
  Alanine Transaminase (ALT): 48 U/L
[5]; 0.005 mg/kg, 7 days
  Aspartate Transaminase (AST): 31 U/L
  Alanine Transaminase (ALT): 29 U/L
[5]; 0.005 mg/kg, 14 days
  Aspartate Transaminase (AST): 20 U/L
  Alanine Transaminase (ALT): 44 U/L
[5]; 0.005 mg/kg, Pre-dose
  Aspartate Transaminase (AST): 54 U/L
  Alanine Transaminase (ALT): 43 U/L
[5]; 0.05 mg/kg, 1 days
  Aspartate Transaminase (AST): 34 U/L
[5]; 0.05 mg/kg, 4 days
  Aspartate Transaminase (AST): 42 U/L
  Alanine Transaminase (ALT): 88 U/L
[5]; 0.05 mg/kg, 7 days
  Aspartate Transaminase (AST): 52 U/L
  Alanine Transaminase (ALT): 73 U/L
[5]; 0.05 mg/kg, 14 days
  Aspartate Transaminase (AST): 20 U/L
  Alanine Transaminase (ALT): 50 U/L
[5]; 0.05 mg/kg, Pre-dose
  Aspartate Transaminase (AST): 33 U/L
  Alanine Transaminase (ALT): 58 U/L
[5]; 0.5 mg/kg, 2 days
  Aspartate Transaminase (AST): 794 U/L
  Alanine Transaminase (ALT): 63 U/L
[5]; 0.5 mg/kg, 4 days
  Aspartate Transaminase (AST): 63 U/L
  Alanine Transaminase (ALT): 70 U/L
[5]; 0.5 mg/kg, 7 days
  Aspartate Transaminase (AST): 68 U/L
  Alanine Transaminase (ALT): 41 U/L
[5]; 0.5 mg/kg, 14 days
  Aspartate Transaminase (AST): 67 U/L
  Alanine Transaminase (ALT): 43 U/L
[5]; 0.5 mg/kg, Pre-dose
  Aspartate Transaminase (AST): 47 U/L
  Alanine Transaminase (ALT): 29 U/L
[5]; 0.05 mg/kg, 2 days
  Alanine Transaminase (ALT): 82 U/L
[6]; 100 μg (Luc-unsp 150 μg), I. V.
  Human G-CSF in Serum: 31.0 pg/mL
[6]; 100 μg, S. C.
  Human G-CSF in Serum: 3.9 pg/mL
[7]
  innate immune recognition, cytokines (IFN-alpha): induced IFN-alpha, TNF-alpha and IP10
[8]; IM, 100 ug, saline
  Serum Concentration 8-12 hours after administration: ~20 to 80 pg/mL
[8]; IV (LNP), 1 ug
  Serum Concentration 8-12 hours after administration: ~20,000 pg/ml
[8]; IV (LNP), 10 ug
  Serum Concentration 8-12 hours after administration: ~1,000,000 pg/ml
[8]; IV (LNP), 100 ug
  Serum Concentration 8-12 hours after administration: ~5,000,000 pg/ml
[8]; IV (Lipoplex), 100 ug
  Serum Concentration 8-12 hours after administration: ~30 pg/mL
[8]; SC, 100 ug, saline
  Serum Concentration 8-12 hours after administration: ~10 to 40 pg/mL
[8]; LNP NPA-030-1, 10 ug
  G-CSF Protein Expression, Conc: ~1200 ng/mL
[8]; LNP NPA-030-1, 100 ug
  G-CSF Protein Expression, Conc: ~4700 ng/mL
[9]
  half-life of mRNA: 8 to 10 h
